Values of other authors as cited in patent US11749377B2, “Method and electronic system for predicting at least one fitness value of a protein, related computer program product” (PEACCEL, priority 2015, dated 2023).

Tests used:
rat GLP-1 receptor = molecular target: T1, rat GLP-1 receptor (Rattus norvegicus, UniProt P32301); conditions: Log(IC50), binding affinity to rat GLP-1 receptor
T1 sequence (P32301 22-463): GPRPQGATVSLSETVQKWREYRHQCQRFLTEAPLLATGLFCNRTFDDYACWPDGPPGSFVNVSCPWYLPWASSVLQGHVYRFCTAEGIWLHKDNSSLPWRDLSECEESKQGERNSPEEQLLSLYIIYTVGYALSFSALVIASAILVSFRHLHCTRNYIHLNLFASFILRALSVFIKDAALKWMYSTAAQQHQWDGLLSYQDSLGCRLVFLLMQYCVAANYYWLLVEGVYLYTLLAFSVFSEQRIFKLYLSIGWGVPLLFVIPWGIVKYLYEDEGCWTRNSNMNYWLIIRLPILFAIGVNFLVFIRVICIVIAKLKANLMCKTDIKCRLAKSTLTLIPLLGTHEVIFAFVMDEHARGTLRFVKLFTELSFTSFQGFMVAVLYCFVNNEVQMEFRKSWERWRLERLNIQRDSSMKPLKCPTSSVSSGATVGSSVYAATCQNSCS

GLP-1 receptor = molecular target: T2, GLP-1 receptor (Rattus norvegicus, UniProt P32301); conditions: Log(EC50), adenylate cyclase activity
T2 sequence (P32301 22-463): T1 sequence (P32301 22-463)

Substance	logIC50 (rat GLP-1 receptor)	logEC50 (GLP-1 receptor)
GLP1 A2S: single mutant analog of human GLP1	0.3802	0.301
GLP1 D9A: single mutant analog of human GLP1	1.041	
GLP1 F22A: single mutant analog of human GLP1	2.545	3.415
GLP1 G4A: single mutant analog of human GLP1	1.771	
GLP1 G16A: single mutant analog of human GLP1	−0.2441	0.6021
GLP1 G29A: single mutant analog of human GLP1	0.1139	0
GLP1 I23A: single mutant analog of human GLP1	1.398	1.8451
GLP1 K28A: single mutant analog of human GLP1	0.2304	0.301
GLP1 L14A: single mutant analog of human GLP1	0.2304	0.8451
GLP1 L26A: single mutant analog of human GLP1	0.6721	0.6021
GLP1 R30A: single mutant analog of human GLP1	0.6628	0.8451
GLP1 S11A: single mutant analog of human GLP1	−0.3372	0.4771
GLP1 T7A: single mutant analog of human GLP1	1.5563	1.813
GLP1 V10A: single mutant analog of human GLP1	0.2304	0.8451
GLP1 V27A: single mutant analog of human GLP1	0.1461	0.301
GLP1 Y13A: single mutant analog of human GLP1	0.5441	1.74

Next, values leading:

logIC50 (rat GLP-1 receptor)	logEC50 (GLP-1 receptor)	Substance
−0.05061	1.23	GLP1 A18R: single mutant analog of human GLP1
0.9085	0.301	GLP1 E3A: single mutant analog of human GLP1
0.6128	1.813	GLP1 E15A: single mutant analog of human GLP1
1.5563	1.519	GLP1 F6A: single mutant analog of human GLP1
0.1461	1.114	GLP1 K20A: single mutant analog of human GLP1
0.04139	0.699	GLP1 Q17A: single mutant analog of human GLP1
−0.1192	0.699	GLP1 S8A: single mutant analog of human GLP1
−0.1675	0.301	GLP1 S12A: single mutant analog of human GLP1
0.5441	0.699	GLP1 T5A: single mutant analog of human GLP1
0.2041	1.176	GLP1 W25A: single mutant analog of human GLP1
